± gives the standard deviation of the averaged measurements.
B1: library; a variant is named by its letters at N, in order (parent)
chain: GCUGUCACCGAGAAACUGUGAAGUAUAUCUUAAACCUGGGCACUUAAAAGAUAUAUGGAGUUAGUAGUGCAACCUGCUCGGUCUGAUGAGUCCNNNNNNGGACGAAACAGC

How the values were obtained:
cyclic di-GMP [1] = variants of: B1; assay: FACS-Seq fitted mean relative fluorescence mCherry/BFP without ligand (log10 relative fluorescence); HEK293T; ligand: cyclic di-GMP (c-di-GMP-II aptamer); higher = higher reporter protein expression; settings: ligand present: no
In short: (§1)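 Fluorescence figures are normalized fitted normal means of sequenced bin counts. Enriched, lentivirally transduced HEK293T libraries with a ribozyme-switch mCherry reporter and EF1α-BFP were held 48 h with or without ligand, then sorted into 6 mCherry/BFP bins. PCR-amplified, barcoded genomic DNA from each bin was sequenced on MiSeq. Means of log10(mCherry/BFP) were scaled to five spiked-in control ribozymes.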

cyclic di-GMP [2] = variants of: B1; assay: normalized RNA/DNA level without ligand (relative to sTRSVctl = 100) (log10 (% of sTRSVctl)); HEK293T; ligand: cyclic di-GMP (c-di-GMP-II aptamer); higher = less ribozyme self-cleavage, higher mRNA level; settings: reporter: mCherry (pCS4076), ligand present: no
In short: (§2)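 For each 6-well well, 4 µg of library plasmid encoding mCherry-linked ribozyme switches, or eGFP-linked ones in some ligand experiments, was transfected into HEK293T. Any ligand was added 1 h before transfection, and RNA was extracted with EDTA 72 h after it, then reverse-transcribed, amplified, barcoded and sequenced. RNA level was obtained by dividing RNA reads by DNA reads, normalizing to a spiked-in non-cleaving sequence or to the top sequences, then scaling and log-transforming. The top set was 25 sequences, scaling was ×100 with log10, and ≥100 DNA reads were required.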

cyclic di-GMP [3] = variants of: B1; assay: FACS-Seq fitted mean relative fluorescence mCherry/BFP with ligand (log10 relative fluorescence); HEK293T; ligand: cyclic di-GMP (c-di-GMP-II aptamer); ligand concentration (+) FACS-Seq: 1 mM; higher = higher reporter protein expression; settings: ligand present: yes
In short: as §1

cyclic di-GMP [4] = variants of: B1; assay: normalized RNA/DNA level with ligand (relative to sTRSVctl = 100) (log10 (% of sTRSVctl)); HEK293T; ligand: cyclic di-GMP (c-di-GMP-II aptamer); ligand concentration (+) RNA-Seq: 1 mM; higher = less ribozyme self-cleavage, higher mRNA level; settings: reporter: mCherry (pCS4076), ligand present: yes
In short: as §2

Variant | FACS-Seq fitted mean (log10) (cyclic di-GMP [1]) | normalized RNA/DNA level without ligand (log10) (cyclic di-GMP [2]) | FACS-Seq fitted mean (log10) (cyclic di-GMP [3]) | normalized RNA/DNA level with ligand (log10) (cyclic di-GMP [4])
CAUAGU | -0.641 ± 0.058 | 1.72 ± 0.025 | -0.575 ± 0.046 | 1.85 ± 0.066
CUGAAU | -0.0233 ± 0.075 | 1.43 ± 0.045 | 0.269 ± 0.11 | 1.61 ± 0.075
CGGAUU | -0.623 ± 0.0076 | 1.4 ± 0.18 | -0.3382 ± 0.0012 | 1.54 ± 0.038
GCCCUA | -0.142 ± 0.071 | 1.688 ± 0.013 | 0.0262 ± 0.042 | 1.85 ± 0.1
AACAAG | -0.43 ± 0.028 | 1.523 ± 0.0073 | -0.281 ± 0.037 | 1.73 ± 0.088
GAAUUG | -0.422 ± 0.012 | 1.57 ± 0.096 | -0.0224 ± 0.071 | 1.74 ± 0.11
UUGUUC | -0.6418 ± 0.0047 | 1.75 ± 0.018 | -0.462 ± 0.0095 | 1.89 ± 0.1
UUCACU | -0.67 ± 0.15 | 1.73 ± 0.018 | -0.577 ± 0.18 | 1.85 ± 0.1
ACAAUU | -0.5008 ± 0.0033 | 1.32 ± 0.093 | -0.2 ± 0.0047 | 1.52 ± 0.089
GCCAAG | -0.6955 ± 0.0047 | 1.542 ± 0.0066 | -0.362 ± 0.081 | 1.67 ± 0.19
CUAUUA | -0.459 ± 0.052 | 1.38 ± 0.033 | -0.243 ± 0.052 | 1.6 ± 0.064
GCGUGA | -0.266 ± 0.05 | 1.47 ± 0.068 | -0.000275 ± 0.097 | 1.65 ± 0.088
AUCUAC | -0.188 ± 0.047 | 1.7235 ± 0.00012 | 0.162 ± 0.094 | 1.81 ± 0.12
CGGGGC | -0.104 ± 0.11 | 1.73 ± 0.055 | 0.215 ± 0.046 | 1.84 ± 0.14
GCAGUA | -0.229 ± 0.042 | 1.59 ± 0.035 | 0.0693 ± 0.0072 | 1.7 ± 0.12
AAAGUU | -0.298 ± 0.1 | 1.59 ± 0.068 | 0.0631 ± 0.068 | 1.77 ± 0.03
CCCUGC | -0.0175 ± 0.34 | 1.792 ± 0.0034 | 0.142 ± 0.079 | 1.9 ± 0.16
AAAUGU | -0.132 ± 0.022 | 1.54 ± 0.03 | 0.136 ± 0.093 | 1.78 ± 0.09

Variant | FACS-Seq fitted mean (log10) (cyclic di-GMP [1]) | normalized RNA/DNA level without ligand (log10) (cyclic di-GMP [2]) | FACS-Seq fitted mean (log10) (cyclic di-GMP [3]) | normalized RNA/DNA level with ligand (log10) (cyclic di-GMP [4])
CAUUUA | -0.573 ± 0.012 | 1.32 ± 0.088 | -0.291 ± 0.0053 | 1.51 ± 0.1
GUUAGA | -0.409 ± 0.02 | 1.51 ± 0.12 | -0.0172 ± 0.12 | 1.73 ± 0.11
AACUGA | -0.155 ± 0.014 | 1.54 ± 0.047 | 0.0803 ± 0.017 | 1.68 ± 0.12
GCUAUG | -0.741 ± 0.034 | 1.58 ± 0.075 | -0.505 ± 0.019 | 1.72 ± 0.078
GCUAUA | -0.262 ± 0.11 | 1.55 ± 0.058 | -0.134 ± 0.099 | 1.73 ± 0.11
AAAAGG | -0.489 ± 0.057 | 1.49 ± 0.12 | -0.254 ± 0.005 | 1.66 ± 0.093
UCAGUG | -0.446 ± 0.02 | 1.669 ± 0.0062 | -0.142 ± 0.12 | 1.83 ± 0.15
AAAUAU | -0.442 ± 0.052 | 1.6004 ± 0.00073 | -0.152 ± 0.097 | 1.78 ± 0.11
CACAUU | -0.323 ± 0.046 | 1.58 ± 0.025 | -0.0216 ± 0.035 | 1.7 ± 0.1
UGAAUC | -0.558 ± 0.0095 | 1.72 ± 0.011 | -0.4 ± 0.028 | 1.85 ± 0.083
AGAUGC | -0.7631 ± 0.0076 | 1.66 ± 0.056 | -0.47 ± 0.029 | 1.77 ± 0.12
UCACGU | -0.191 ± 0.32 | 1.6 ± 0.044 | 0.0669 ± 0.07 | 1.79 ± 0.074
AAGAGG | -0.546 ± 0.022 | 1.53 ± 0.052 | -0.313 ± 0.016 | 1.68 ± 0.15
AGAAUU | 0.202 ± 0.13 | 1.65 ± 0.072 | 0.346 ± 0.074 | 1.8 ± 0.12
ACCUAU | -0.223 ± 0.079 | 1.59 ± 0.055 | -0.113 ± 0.043 | 1.79 ± 0.11
UGAUAG | -0.125 ± 0.093 | 1.696 ± 0.015 | 0.191 ± 0.081 | 1.83 ± 0.12
GUACGC | -0.788 ± 0.17 | 1.77 ± 0.056 | -0.516 ± 0.067 | 1.88 ± 0.091
UAUAGC | -0.313 ± 0.039 | 1.73 ± 0.044 | -0.0839 ± 0.078 | 1.83 ± 0.19

Reference: the supplement of paper PMC6757056
